Experimental data reported in the supplement of paper PMC11246515.
± gives the standard deviation of the averaged measurements.

Experiment: total protein half-life in vivo (active degradation + dilution); higher = more stable protein
[1] = E. coli NCM3722 delta-clpP, growth: N-lim chemostat, doubling time 6 h
[2] = E. coli NCM3722 delta-hslV, growth: N-lim chemostat, doubling time 6 h
[3] = E. coli NCM3722 delta-lon, growth: N-lim chemostat, doubling time 6 h
[4] = E. coli NCM3722 delta-smpB, growth: N-lim chemostat, doubling time 6 h
[5] = wild type E. coli NCM3722, growth: C-lim chemostat, doubling time 3 h
[6] = wild type E. coli NCM3722, growth: C-lim chemostat, doubling time 6 h
[7] = wild type E. coli NCM3722, growth: C-lim chemostat, doubling time 12 h
[8] = wild type E. coli NCM3722, growth: N-lim chemostat, doubling time 6 h
[9] = wild type E. coli NCM3722, growth: N-lim chemostat, doubling time 12 h
[10] = wild type E. coli NCM3722, growth: P-lim chemostat, doubling time 6 h
[11] = wild type E. coli NCM3722, growth: P-lim chemostat, doubling time 12 h
[12] = E. coli NCM3722 delta-clpP delta-lon delta-hslV, growth: N-lim chemostat, doubling time 6 h

| Sequence | total protein half-life in vivo [1] | total protein half-life in vivo [2] | total protein half-life in vivo [3] | total protein half-life in vivo [4] | total protein half-life in vivo [5] | total protein half-life in vivo [6] | total protein half-life in vivo [7] | total protein half-life in vivo [8] | total protein half-life in vivo [9] | total protein half-life in vivo [10] | total protein half-life in vivo [11] | total protein half-life in vivo [12] |
| --- | --- | --- | --- | --- | --- | --- | --- | --- | --- | --- | --- | --- |
| MTQTLLAIENLSVGFRHQQTVRTVVNDVSLQIEAGETLALVGESGSGKSVTALSILRLLPSPPVEYLSGDIRFHGESLLHASDQTLRGVRGNKIAMIFQEPMVSLNPLHTLEKQLYEVLSLHRGMRREAARGEILNCLDRVGIRQAAKRLTDYPHQLSGGERQRVMIAMALLTRPELLIADEPTTALDVSVQAQILQLLRELQGELNMGMLFITHNLSIVRKLAHRVAVMQNGRCVEQNYAATLFASPTHPYTQKLLNSEPSGDPVPLPEPASTLLDVEQLQVAFPIRKGILKRIVDHNVVVKNISFTLRAGETLGLVGESGSGKSTTGLALLRLINSQGSIIFDGQPLQNLNRRQLLPIRHRIQVVFQDPNSSLNPRLNVLQIIEEGLRVHQPTLSAAQREQQVIAVMHEVGLDPETRHRYPAEFSGGQRQRIAIARALILKPSLIILDEPTSSLDKTVQAQILTLLKSLQQKHQLAYLFISHDLHVVRALCHQVIILRQGEVVEQGPCARVFATPQQEYTRQLLALS | 5.76 ± 0.31 h | 6.42 ± 0.031 h | 4.55 ± 0.74 h | 5.67 ± 0.15 h | 3 ± 0.32 h | 5.64 ± 0.14 h | 13.1 ± 0.73 h | 5.87 ± 0.26 h | 11.6 h | 6.17 ± 0.13 h | 11.9 ± 0.82 h | – |
| MTQTLSQLENSGAFIERHIGPDAAQQQEMLNAVGAQSLNALTGQIVPKDIQLATPPQVGAPATEYAALAELKAIASRNKRFTSYIGMGYTAVQLPPVILRNMLENPGWYTAYTPYQPEVSQGRLEALLNFQQVTLDLTGLDMASASLLDEATAAAEAMAMAKRVSKLKNANRFFVASDVHPQTLDVVRTRAETFGFEVIVDDAQKVLDHQDVFGVLLQQVGTTGEIHDYTALISELKSRKIVVSVAADIMALVLLTAPGKQGADIVFGSAQRFGVPMGYGGPHAAFFAAKDEYKRSMPGRIIGVSKDAAGNTALRMAMQTREQHIRREKANSNICTSQVLLANIASLYAVYHGPVGLKRIANRIHRLTDILAAGLQQKGLKLRHAHYFDTLCVEVADKAGVLTRAEAAEINLRSDILNAVGITLDETTTRENVMQLFNVLLGDNHGLDIDTLDKDVAHDSRSIQPAMLRDDEILTHPVFNRYHSETEMMRYMHSLERKDLALNQAMIPLGSCTMKLNAAAEMIPITWPEFAELHPFCPPEQAEGYQQMIAQLADWLVKLTGYDAVCMQPNSGAQGEYAGLLAIRHYHESRNEGHRDICLIPASAHGTNPASAHMAGMQVVVVACDKNGNIDLTDLRAKAEQAGDNLSCIMVTYPSTHGVYEETIREVCEVVHQFGGQVYLDGANMNAQVGITSPGFIGADVSHLNLHKTFCIPHGGGGPGMGPIGVKAHLAPFVPGHSVVQIEGMLTRQGAVSAAPFGSASILPISWMYIRMMGAEGLKKASQVAILNANYIASRLQDAFPVLYTGRDGRVAHECILDIRPLKEETGISELDIAKRLIDYGFHAPTMSFPVAGTLMVEPTESESKVELDRFIDAMLAIRAEIDQVKAGVWPLEDNPLVNAPHIQSELVAEWAHPYSREVAVFPAGVADKYWPTVKRLDDVYGDRNLFCSCVPISEYQ | 3.621 ± 0.013 h | 4.09 ± 0.11 h | 4 ± 0.3 h | 3.81 ± 0.18 h | 3.022 ± 0.029 h | 4.95 ± 0.14 h | 8.75 ± 0.28 h | 4.02 ± 0.13 h | 6.79 ± 0.18 h | 6.117 ± 0.035 h | 11 ± 0.55 h | 4.44 ± 0.46 h |
| MTQYWLGLDCGGSWLKAGLYDREGREAGVQRLPLCALSPQPGWAERDMAELWQCCMAVIRALLTHSGVSGEQIVGIGISAQGKGLFLLDKNDKPLGNAILSSDRRAMEIVRRWQEDGIPEKLYPLTRQTLWTGHPVSLLRWLKEHEPERYAQIGCVMMTHDYLRWCLTGVKGCEESNISESNLYNMSLGEYDPCLTDWLGIAEINHALPPVVGSAEICGEITAQTAALTGLKAGTPVVGGLFDVVSTALCAGIEDEFTLNAVMGTWAVTSGITRGLRDGEAHPYVYGRYVNDGEFIVHEASPTSSGNLEWFTAQWGEISFDEINQAVASLPKAGGDLFFLPFLYGSNAGLEMTSGFYGMQAIHTRAHLLQAIYEGVVFSHMTHLNRMRERFTDVHTLRVTGGPAHSDVWMQMLADVSGLRIELPQVEETGCFGAALAARVGTGVYHNFSEAQRDLRHPVRTLLPDMTAHQLYQKKYQRYQHLIAALQGFHARIKEHTL | – | – | – | – | – | 4.05 ± 1.2 h | 7.19 ± 1.2 h | – | – | – | – | – |
| MTRIKINARRIFSLLIPFFFFTSVHAEQTAAPAKPVTVEAKNETFAPQHPDQYLSWKATSEQSERVDALAEDPRLVILWAGYPFSRDYNKPRGHAFAVTDVRETLRTGAPKNAEDGPLPMACWSCKSPDVARLIQKDGEDGYFHGKWARGGPEIVNNLGCADCHNTASPEFAKGKPELTLSRPYAARAMEAIGKPFEKAGRFDQQSMVCGQCHVEYYFDGKNKAVKFPWDDGMKVENMEQYYDKIAFSDWTNSLSKTPMLKAQHPEYETWTAGIHGKNNVTCIDCHMPKVQNAEGKLYTDHKIGNPFDNFAQTCANCHTQDKAALQKVVAERKQSINDLKIKVEDQLVHAHFEAKAALDAGATEAEMKPIQDDIRHAQWRWDLAIASHGIHMHAPEEGLRMLGTAMDKAADARTKLARLLATKGITHEIQIPDISTKEKAQQAIGLNMEQIKAEKQDFIKTVIPQWEEQARKNGLLSQ [P0ABK9] | 5.87 h | – | – | – | – | – | > 16 h | – | 10.5 ± 0.82 h | – | – | 3.84 h |
| MTRKQATIAVRSGLNDDEQYGCVVPPIHLSSTYNFTGFNEPRAHDYSRRGNPTRDVVQRALAELEGGAGAVLTNTGMSAIHLVTTVFLKPGDLLVAPHDCYGGSYRLFDSLAKRGCYRVLFVDQGDEQALRAALAEKPKLVLVESPSNPLLRVVDIAKICHLAREVGAVSVVDNTFLSPALQNPLALGADLVLHSCTKYLNGHSDVVAGVVIAKDPDVVTELAWWANNIGVTGGAFDSYLLLRGLRTLVPRMELAQRNAQAIVKYLQTQPLVKKLYHPSLPENQGHEIAARQQKGFGAMLSFELDGDEQTLRRFLGGLSLFTLAESLGGVESLISHAATMTHAGMAPEARAAAGISETLLRISTGIEDGEDLIADLENGFRAANKG | 4.07 ± 0.43 h | 3.31 ± 0.36 h | 4.53 ± 0.59 h | 3.95 ± 0.28 h | 3.1 ± 0.16 h | 4.98 ± 0.61 h | 10 ± 0.44 h | 3.56 ± 0.17 h | 5.84 ± 0.7 h | 5.83 ± 0.5 h | 11.7 ± 1.1 h | 4.37 ± 0.79 h |
| MTRLAEILDQMSAVLNDLKTVMDQEQQHLSMGQINGSQLQWITEQKSSLLATLDYLEQLRRKEPNTANSVDISQRWQEITVKTQQLRQMNQHNGWLLEGQIERNQQALEMLKPHQEPTLYGANGQTSTTHRGGKKISI | – | – | – | – | 1.15 ± 0.27 h | 4.91 h | 3.28 h | – | – | – | – | – |
| MTRLTLALDVMGGDFGPSVTVPAALQALNSNSQLTLLLVGNSDAITPLLAKADFEQRSRLQIIPAQSVIASDARPSQAIRASRGSSMRVALELVKEGRAQACVSAGNTGALMGLAKLLLKPLEGIERPALVTVLPHQQKGKTVVLDLGANVDCDSTMLVQFAIMGSVLAEEVVEIPNPRVALLNIGEEEVKGLDSIRDASAVLKTIPSINYIGYLEANELLTGKTDVLVCDGFTGNVTLKTMEGVVRMFLSLLKSQGEGKKRSWWLLLLKRWLQKSLTRRFSHLNPDQYNGACLLGLRGTVIKSHGAANQRAFAVAIEQAVQAVQRQVPQRIAARLESVYPAGFELLDGGKSGTLR | 6.24 ± 1.2 h | 5.82 ± 0.97 h | – | 5.36 ± 0.15 h | 2.67 ± 0.076 h | 5.52 ± 0.33 h | 10.8 ± 1.9 h | 5.32 ± 0.21 h | 9.51 ± 0.53 h | 5.34 ± 0.72 h | 8.85 ± 1.9 h | – |
